Legend:
[1] = target: T1, antigen EGFRvIII (purchased protein) (UniProt P00533 25-645, limits assumed); assay: concentration gradient ELISA, EGFRvIII coated 200 ng/well, anti-His-tag detection, non-linear fit
T1 construct: also called EGFRvIII antigen; biotin-labeled antigen EGFRvIII
Procedure: Binding activity of an antibody to antigen EGFRvIII was determined by concentration gradient ELISA assay. For this purpose, the antigen EGFRvIII was diluted with 0.1 M NaHCO₃ (pH 9.6) coating solution and each well was coated with 200 ng at 50 μl/well overnight at 4° C. and blocked with PBST containing 2% (w/v) BSA for 2 hours at room temperature. The plate was then rinsed for three times with PBST. […] After incubation for 2 hours at 37° C., plate was rinsed for three times with PBST followed by adding 100 μl/well of a 1:2000 dilution of mouse anti-His-tag antibody (available from Santa cruz) for 1 hour at 37° C. To test the bound antibody, HRP-labeled goat anti-mouse antibody (purchased from Santa Cruz) was diluted in PBST at a 1:15,000 dilution and 100 μl per well was added and incubated at 37° C. for 1 hour. […] The chromogenic reaction was stopped with 50 μl of 2 M H₂SO₄ per well and extinction value was measured at 450 nm using enzyme-linked immunoassay (Bio-Rad). The absorbance values obtained were evaluated using Sigma Plot software and the binding strength of an antibody was calculated. For this purpose, the extinction value measured in each case was plotted against the corresponding antibody concentration and the resulting curve was fitted using the following non-linear regression.

[2] = target: EGFR on the cell surface (human) (UniProt P00533); assay: FACS on CAL 27 cells, method of Example 9; PBS control 3.11
[3] = target: T2, EGFRvIII on U87-EGFRvIII cells (human, UniProt P00533 25-1210); assay: FACS on U87MG-EGFRvIII cells, method of Example 9; PBS control 1
T2 construct: whole, on cells; EGFRvIII is a deletion variant of it; also called U87MG-EGFRvIII; mutant human EGFR

N1N2 (control protein) = target: T3, N1N2 (control protein) (M13 phage, UniProt P69168 19-235, limits assumed); assay: single phage ELISA, 100 ng/well coated protein
T3 construct: domain: N1N2 domain; Negative control protein in the phage ELISA
Procedure: (§1) Each well was blocked with PBST containing 2% BSA (w/v). The wells were then washed with PBST for three times. Then, each phage solution prepared above was added to each well of the plate at 100 μl/well. After incubation for 2 hours at 37° C., it was washed for three times with PBST. To detect bound phage, anti-M13 antibody […] conjugate (purchased from GE Healthcare) was diluted at 1:5000 in PBST and 100 μl was added to each well. After incubating at 37° C. for 1 hour, the wells were rinsed for three times with PBST and then rinsed for three times with PBS. Finally, 50 μl of TMB substrate was added into the wells and developed for 10 minutes at room temperature, followed by addition of 50 μl of 2M H₂SO₄ per well to stop the color reaction. Extinction values were measured at 450 nm with an enzyme-linked immunosorbent (Bio-Rad).
(§2) All of the altered amino acid positions include S31 in the light chain CDR1 region, V89, A92, Q93, F94 and Y96 in the light chain CDR3 region, 5182 in the heavy chain CDR2 region, L222, R224, G225, F226 and R227 in the heavy chain CDR3 region.

[4] = target: T4, BSA (bovine serum albumin) (bovine, UniProt P02769 25-607); assay: single phage ELISA, 100 ng/well coated protein
T4 construct: Negative control protein in the phage ELISA
Procedure: as §1, §2

[5] = target: T2, EGFRvIII on U87-EGFRvIII cells; assay: FACS on U87-EGFRvIII cells, 20 µg/ml
Procedure: 2) Cells were digested with 10 mM EDTA and cells were collected by centrifugation at 200 g for 5 min. Cells were resuspended in 1% phosphate buffered saline (NBS PBS) containing calf serum at a concentration of 1×10⁶ to 1×10⁷/mL, and added in a flow tube in an amount of 100 μl/tube.
And PBS was used as a negative control. The final concentration of antibody was 20 μg/ml, 100 μl was added to each tube and placed in an ice bath for 45 minutes.

T3 sequence (P69168 19-235 limits assumed): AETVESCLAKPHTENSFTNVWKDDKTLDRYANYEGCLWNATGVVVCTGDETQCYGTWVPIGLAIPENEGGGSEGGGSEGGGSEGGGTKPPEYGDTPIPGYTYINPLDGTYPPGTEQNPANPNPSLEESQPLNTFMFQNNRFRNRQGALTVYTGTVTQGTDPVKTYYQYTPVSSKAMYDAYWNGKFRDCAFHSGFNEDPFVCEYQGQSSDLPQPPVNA
T4 sequence (P02769 25-607 limits assumed): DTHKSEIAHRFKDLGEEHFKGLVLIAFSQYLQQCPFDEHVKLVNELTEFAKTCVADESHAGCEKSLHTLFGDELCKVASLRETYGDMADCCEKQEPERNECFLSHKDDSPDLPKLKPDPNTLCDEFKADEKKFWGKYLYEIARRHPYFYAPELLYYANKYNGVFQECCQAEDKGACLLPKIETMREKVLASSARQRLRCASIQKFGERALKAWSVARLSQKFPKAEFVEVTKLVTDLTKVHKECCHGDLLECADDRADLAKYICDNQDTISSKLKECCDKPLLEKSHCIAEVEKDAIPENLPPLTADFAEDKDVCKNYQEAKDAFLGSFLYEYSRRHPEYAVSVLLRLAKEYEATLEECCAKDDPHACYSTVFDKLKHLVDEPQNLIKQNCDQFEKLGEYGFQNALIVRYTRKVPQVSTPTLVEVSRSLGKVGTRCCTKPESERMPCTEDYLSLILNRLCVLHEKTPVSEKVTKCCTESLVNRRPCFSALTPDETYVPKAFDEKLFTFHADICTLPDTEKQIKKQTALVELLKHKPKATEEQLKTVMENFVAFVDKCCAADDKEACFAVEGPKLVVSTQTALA

Binder | mean fluorescence intensity (MFI) [2] | mean fluorescence intensity (MFI) [3] | also measured
antibody 7B3, single chain antibody with carboxy-terminal 6xhistidine, produced in E. coli (scFv) scFv: DIQMTQSPSSLSASVGDRVTITCHASQDINSNIGWLQQKPGKAFKGLIYHGKNLEDGVPSRFSGSGSGTDFTLTISSLQPEDFATYYCVQYAQFPYTFGQGTKVEIKRGGGGSGGGGSGGGGSDVQLVESGGGLVQPGGSLRLSCAVSGYSITSDYAWNWIRQAPGKGLEWLGYISYRGRTSYNPSLKSRISITRDNSKNTFFLQLNSLRAEDTAVYYCARLGRGFRYWGQGTLVTVSSHHHHHH | – | – | Kd [1]: ~22.4 nM
antibody Y022, single chain antibody with carboxy-terminal 6xhistidine, produced in E. coli (scFv) scFv: DIQMTQSPSSLSASVGDRVTITCHASQDINVNIGWLQQKPGKAFKGLIYHGKNLEDGVPSRFSGSGSGTDFTLTISSLQPEDFATYYCNQYENIPLTFGQGTKVEIKRGGGGSGGGGSGGGGSDVQLVESGGGLVQPGGSLRLSCAVSGYSITSDYAWNWIRQAPGKGLEWLGYISYRGRTQYNPSLKSRISITRDNSKNTFFLQLNSLRAEDTAVYYCARMGKNWDYWGQGTLVTVSSHHHHHH | – | – | Kd [1]: ~2.7 nM
M14/CD3 single chain bifunctional antibody (bispecific antibody, part only; not given: linker, anti-CD3 scFv, His tag, not shown: another chain or arm of the molecule) DIQMTQSPSSLSASVGDRVTITCHASQDINSNIGWLQQKPGKAFKGLIYHGKNLEDGVPSRFSGSGSGTDFTLTISSLQPEDFATYYCNQYENNPITFGQGTKVEIKRGGGGSGGGGSGGGGSDVQLVESGGGLVQPGGSLRLSCAVSGYSITSDYAWNWIRQAPGKGLEWLGYISYRGRTNYNPSLKSRISITRDNSKNTFFLQLNSLRAEDTAVYYCARLGRGFRYWGQGTLVTVSS | 28.4 | 36.5 | –
M15/CD3 single chain bifunctional antibody (bispecific antibody, part only; not given: linker, anti-CD3 scFv, His tag, not shown: another chain or arm of the molecule) DIQMTQSPSSLSASVGDRVTITCHASQDINVNIGWLQQKPGKAFKGLIYHGKNLEDGVPSRFSGSGSGTDFTLTISSLQPEDFATYYCNQYENNPITFGQGTKVEIKRGGGGSGGGGSGGGGSDVQLVESGGGLVQPGGSLRLSCAVSGYSITSDYAWNWIRQAPGKGLEWLGYISYRGRTSYNPSLKSRISITRDNSKNTFFLQLNSLRAEDTAVYYCARLGRGFRYWGQGTLVTVSS | 29.4 | 37.9 | –
S17/CD3 single chain bifunctional antibody (bispecific antibody, part only; not given: linker, anti-CD3 scFv, His tag, not shown: another chain or arm of the molecule) DIQMTQSPSSLSASVGDRVTITCHASQDINTNIGWLQQKPGKAFKGLIYHGKNLEDGVPSRFSGSGSGTDFTLTISSLQPEDFATYYCNQYENNPLTFGQGTKVEIKRGGGGSGGGGSGGGGSDVQLVESGGGLVQPGGSLRLSCAVSGYSITSDYAWNWIRQAPGKGLEWLGYISYRGRTQYNPSLKSRISITRDNSKNTFFLQLNSLRAEDTAVYYCARLGRGFRYWGQGTLVTVSS | 25 | 31.6 | –
M26/CD3 single chain bifunctional antibody (bispecific antibody, part only; not given: linker, anti-CD3 scFv, His tag, not shown: another chain or arm of the molecule) DIQMTQSPSSLSASVGDRVTITCHASQDINVNIGWLQQKPGKAFKGLIYHGKNLEDGVPSRFSGSGSGTDFTLTISSLQPEDFATYYCNQYENIPLTFGQGTKVEIKRGGGGSGGGGSGGGGSDVQLVESGGGLVQPGGSLRLSCAVSGYSITSDYAWNWIRQAPGKGLEWLGYISYRGRTQYNPSLKSRISITRDNSKNTFFLQLNSLRAEDTAVYYCARLGRGFRYWGQGTLVTVSS | 24.6 | 41.4 | –
S23/CD3 single chain bifunctional antibody (bispecific antibody, part only; not given: linker, anti-CD3 scFv, His tag, not shown: another chain or arm of the molecule) DIQMTQSPSSLSASVGDRVTITCHASQDINVNIGWLQQKPGKSFKGLIYHGKNLEDGVPSRFSGSGSGTDFTLTISSLQPEDFATYYCNQYENNPLTFGQGTKVEIKRGGGGSGGGGSGGGGSDVQLVESGGGLVQPGGSLRLSCAVSGYSITSDYAWNWIRQAPGKGLEWLGYISYRGRTRYNPSLKSRISITRDNSKNTFFLQLNSLRAEDTAVYYCARLGRGFRYWGQGTLVTVSS | 29.7 | 32.2 | –
S29/CD3 single chain bifunctional antibody (bispecific antibody, part only; not given: linker, anti-CD3 scFv, His tag, not shown: another chain or arm of the molecule) DIQMTQSPSSLSASVGDRVTITCHASQDINVNIGWLQQKPGKAFKGLIYHGKNLEDGVPSRFSGSGSGTDFTLTISSLQPEDFATYYCNQYENFPLTFGQGTKVEIKRGGGGSGGGGSGGGGSDVQLVESGGGLVQPGGSLRLSCAVSGYSITSDYAWNWIRQAPGKGLEWLGYISYRGRTRYNPSLKSRISITRDNSKNTFFLQLNSLRAEDTAVYYCARLGRGFRYWGQGTLVTVSS | 25.7 | 34.6 | –
M25/CD3 single chain bifunctional antibody (bispecific antibody, part only; not given: linker, anti-CD3 scFv, His tag, not shown: another chain or arm of the molecule) DIQMTQSPSSLSASVGDRVTITCHASQDINVNIGWLQQKPGKAFKGLIYHGKNLEDGVPSRFSGSGSGTDFTLTISSLQPEDFATYYCNQYENIPLTFGQGTKVEIKRGGGGSGGGGSGGGGSDVQLVESGGGLVQPGGSLRLSCAVSGYSITSDYAWNWIRQAPGKGLEWLGYISYRGRTRYNPSLKSRISITRDNSKNTFFLQLNSLRAEDTAVYYCARLGRGFRYWGQGTLVTVSS | 24.1 | 36.5 | –
S22/CD3 single chain bifunctional antibody (bispecific antibody, part only; not given: linker, anti-CD3 scFv, His tag, not shown: another chain or arm of the molecule) DIQMTQSPSSLSASVGDRVTITCHASQDINVNIGWLQQKPGKAFKGLIYHGTNLEDGVPSRFSGSGSGTDFTLTISSLQPEDFATYYCNQYENNPLTFGQGTKVEIKRGGGGSGGGGSGGGGSDVQLVESGGGLVQPGGSLRLSCAVSGYSITSDYAWNWIRQAPGKGLEWLGYISYRGRTRYNPSLKSRISITRDNSKNTFFLQLNSLRAEDTAVYYCARLGRGFRYWGQGTLVTVSS | 24.6 | 31.3 | –
S8/CD3 single chain bifunctional antibody (bispecific antibody, part only; not given: linker, anti-CD3 scFv, His tag, not shown: another chain or arm of the molecule) DIQMTQSPSSLSASVGDRVTITCHASQDINVNIGWLQQKPGKSFKGLIYHGKNLEDGVPSRFSGSGSGTDFTLTISSLQPEDFATYYCNQYENNPITFGQGTKVEIKRGGGGSGGGGSGGGGSDVQLVESGGGLVQPGGSLRLSCAVSGYSITSDYAWNWIRQAPGKGLEWLGYISYRGRTSYNPSLKSRISITRDNSKNTFFLQLNSLRAEDTAVYYCARLGRGFRYWGQGTLVTVSS | 30 | 38.5 | –
S7/CD3 single chain bifunctional antibody (bispecific antibody, part only; not given: linker, anti-CD3 scFv, His tag, not shown: another chain or arm of the molecule) DIQMTQSPSSLSASVGDRVTITCHASQDINVNIGWLQQKPGKAFKGLIYHGTNLEDGVPSRFSGSGSGTDFTLTISSLQPEDFATYYCNQYENNPITFGQGTKVEIKRGGGGSGGGGSGGGGSDVQLVESGGGLVQPGGSLRLSCAVSGYSITSDYAWNWIRQAPGKGLEWLGYISYRGRTSYNPSLKSRISITRDNSKNTFFLQLNSLRAEDTAVYYCARLGRGFRYWGQGTLVTVSS | 27.9 | 42.2 | –
single chain antibody Y022 displayed on phage (scFv, 12 mutations against 7B3; not shown: fusion to M13 phage coat protein from phagemid pCANTAB 5E (pCantab 5E-Y022)) scFv: DIQMTQSPSSLSASVGDRVTITCHASQDINVNIGWLQQKPGKAFKGLIYHGKNLEDGVPSRFSGSGSGTDFTLTISSLQPEDFATYYCNQYENIPLTFGQGTKVEIKRGGGGSGGGGSGGGGSDVQLVESGGGLVQPGGSLRLSCAVSGYSITSDYAWNWIRQAPGKGLEWLGYISYRGRTQYNPSLKSRISITRDNSKNTFFLQLNSLRAEDTAVYYCARMGKNWDYWGQGTLVTVSS | – | – | binding result (N1N2 (control protein)): no binding; binding result [4]: no binding
scFv-Y022-Fc (Fc fusion, Expressed in HEK-293F cells, protein A purified; also called single chain antibody Y022; V5-scFv-Y022-Fc; not shown: Fc fragment of human IgG1 from vector pCMV-V5-Fc, fused downstream of the multiple cloning site; limits and junction res) DIQMTQSPSSLSASVGDRVTITCHASQDINVNIGWLQQKPGKAFKGLIYHGKNLEDGVPSRFSGSGSGTDFTLTISSLQPEDFATYYCNQYENIPLTFGQGTKVEIKRGGGGSGGGGSGGGGSDVQLVESGGGLVQPGGSLRLSCAVSGYSITSDYAWNWIRQAPGKGLEWLGYISYRGRTQYNPSLKSRISITRDNSKNTFFLQLNSLRAEDTAVYYCARMGKNWDYWGQGTLVTVSS | – | – | binding result [5]: binds

— US20180327501A1 (CARSGEN THERAPEUTICS, published 2018)
